Reference: the supplement of paper PMC7877785
± gives the uncertainty stated by the source.

Assay: self-splicing fitness, log relative to wild type (ln ratio); higher = more splicing; Tetrahymena group I intron in knt gene, E. coli kanamycin selection, DiMSum; sequences stand for … in CUCUCU…GGAGGGAAAAGUUAUCAGGCAUGCACCUGGUAGCUAGUCUUUAAACCAAUAGAUUGCAUCGGUUUAAAAGGCAAGACCGUCAAAUUGCGGGAAAGGGGUCAACAGCCGUUCAGUACCAAGUCUCAGGGGAAACUUUGAGAUGGCCUUGCAAAGGGUAUGGUAAUAAGCUGACGGACAUGGUCCUAACCACGCAGCCAAGUCCUAAGUCAACAGAUCUUCUGUUGAUAUGGAUGCAGUUCACAGACUAAAUGUCGGUCGGGGAAGAUGUAUUCUUCUCAUAAGAUAUAGUCGGACCUCUCCUUAAUGGGAGCUAGCGGAUGAAGUGAUGCAACACUGGAGCCGCUGGGAACUAAUUUGUAUGCGAAAGUAUAUUGAUUAGUUUUGGAGUACUCGUGGUCG
In short: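 Library with all eight P1ex-region intron nucleotides randomised, intron inside the knt kanamycin-resistance gene on pET-22b(+), in E. coli BL21(DE3). Cells grew overnight at 37°C or 30°C on LB agar with or without 25 μg/mL kanamycin (plus 100 μg/mL carbenicillin, 50 μM IPTG, 0.2% rhamnose), in six replicate transformations. Pooled colonies were amplicon-sequenced on Illumina HiSeq 2500. DiMSum fitness is the error-weighted combination of wild-type-normalised replicate fold changes, kanamycin versus none.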

| Sequence | self-splicing fitness (ln) (30 °C) | self-splicing fitness (ln) (37 °C) |
| --- | --- | --- |
| CGAUAGCAAUAUUACGUCUC | -2.61 ± 0.19 | -2.55 ± 0.32 |
| CGAUAGCAAUAUUACGUGAC | -2.87 ± 0.18 | -2.36 ± 0.23 |
| CGAUAGCAAUAUUACGUGCA | -2.67 ± 0.15 | -2.13 ± 0.16 |
| CGAUAGCAAUAUUACGUUAG | -0.734 ± 0.084 | -0.52 ± 0.093 |
| CGAUAGCAAUAUUACGUUUA | – | -2.57 ± 0.21 |
| CGCAAGCAAUAUUACGAUCA | -1.58 ± 0.12 | 0.00155 ± 0.11 |
| CGCAAGCAAUAUUACGAUUA | -2.6 ± 0.17 | -1.29 ± 0.15 |
| CGCAAGCAAUAUUACGCAUA | -3.81 ± 0.3 | -0.539 ± 0.15 |
| CGCAAGCAAUAUUACGCGAC | -3.77 ± 0.39 | -1.68 ± 0.18 |
| CGCAAGCAAUAUUACGCGCC | -3.06 ± 0.21 | -1.54 ± 0.17 |
| CGCAAGCAAUAUUACGCGGC | -3.05 ± 0.28 | -2.81 ± 0.38 |
| CGCAAGCAAUAUUACGCGUC | -3.7 ± 0.37 | -3.31 ± 0.35 |
| CGCAAGCAAUAUUACGCUUC | -3.18 ± 0.3 | – |
| CGCAAGCAAUAUUACGCUUG | -2.74 ± 0.2 | -1.87 ± 0.21 |
| CGCAAGCAAUAUUACGCUUU | -3.44 ± 0.21 | -2.34 ± 0.21 |
| CGCAAGCAAUAUUACGGAUC | -2 ± 0.19 | -2.21 ± 0.18 |
| CGCAAGCAAUAUUACGGAUG | -1.2 ± 0.062 | -0.889 ± 0.073 |
| CGCAAGCAAUAUUACGGCAA | -1.41 ± 0.1 | -0.0385 ± 0.081 |
| CGCAAGCAAUAUUACGGCAG | -0.448 ± 0.072 | -0.305 ± 0.1 |
| CGCAAGCAAUAUUACGGUAA | -3.47 ± 0.16 | -1.67 ± 0.1 |
| CGCAAGCAAUAUUACGGUCU | -0.969 ± 0.066 | -0.898 ± 0.081 |
| CGCAAGCAAUAUUACGUACG | -2.03 ± 0.086 | -0.768 ± 0.1 |
| CGCAAGCAAUAUUACGUGAA | -2.5 ± 0.11 | -1.08 ± 0.11 |
| CGCAAGCAAUAUUACGUGAU | -4.09 ± 0.16 | -1.63 ± 0.11 |
| CGCAAGCAAUAUUACGUGUA | -2.88 ± 0.13 | -0.494 ± 0.1 |

| Sequence | self-splicing fitness (ln) (30 °C) | self-splicing fitness (ln) (37 °C) |
| --- | --- | --- |
| CGCAAGCAAUAUUACGUUAG | -1.15 ± 0.073 | -1.42 ± 0.1 |
| CGCCAGCAAUAUUACGAAUU | -4.49 ± 0.27 | -1.46 ± 0.17 |
| CGCCAGCAAUAUUACGAGAU | -3.69 ± 0.18 | -2.04 ± 0.17 |
| CGCCAGCAAUAUUACGAUAG | 0.428 ± 0.062 | 0.155 ± 0.081 |
| CGCCAGCAAUAUUACGCAAU | -4.2 ± 0.21 | -2.63 ± 0.22 |
| CGCCAGCAAUAUUACGCAUC | -3.71 ± 0.16 | -2.74 ± 0.17 |
| CGCCAGCAAUAUUACGCAUU | -3.11 ± 0.25 | -2.01 ± 0.18 |
| CGCCAGCAAUAUUACGCCAA | -1.59 ± 0.23 | -2.02 ± 0.46 |
| CGCCAGCAAUAUUACGCCAC | – | -1.48 ± 0.2 |
| CGCCAGCAAUAUUACGCCGU | -2.59 ± 0.15 | -1.71 ± 0.17 |
| CGCCAGCAAUAUUACGCGCU | -3.54 ± 0.15 | -2.52 ± 0.15 |
| CGCCAGCAAUAUUACGCUGC | -4.16 ± 0.41 | -2.24 ± 0.28 |
| CGCCAGCAAUAUUACGGAAU | -2.95 ± 0.2 | -2.05 ± 0.21 |
| CGCCAGCAAUAUUACGGAGA | – | -2.4 ± 0.24 |
| CGCCAGCAAUAUUACGGCUU | -0.48 ± 0.07 | -0.347 ± 0.08 |
| CGCCAGCAAUAUUACGGGAC | – | -2.48 ± 0.24 |
| CGCCAGCAAUAUUACGGUAG | -2.51 ± 0.11 | -2.03 ± 0.18 |
| CGCCAGCAAUAUUACGGUUU | -0.936 ± 0.056 | -0.589 ± 0.059 |
| CGCCAGCAAUAUUACGUGCU | -3.27 ± 0.2 | -3.23 ± 0.33 |
| CGCCAGCAAUAUUACGUGUG | -2.82 ± 0.094 | -1.81 ± 0.11 |
| CGCCAGCAAUAUUACGUUAG | -0.475 ± 0.074 | 0.385 ± 0.099 |
| CGCCAGCAAUAUUACGUUCA | -2.8 ± 0.12 | -1.86 ± 0.11 |
| CGCCAGCAAUAUUACGUUGG | -2.64 ± 0.14 | -2.68 ± 0.24 |
| CGCGAGCAAUAUUACGAAGG | -2.81 ± 0.24 | -2.64 ± 0.27 |
